Laboratory results from article PMC8897276.
Where two headings read alike, the source gives them in different places.

What was measured:
[1] = target: A2Moo (ovomacroglobulin), the Xenopus laevis egg Alpha-2-Macroglobulin homolog (Xenopus laevis); assay: cryo-EM structure
[2] = target: A2Moo (ovomacroglobulin), the Xenopus laevis egg Alpha-2-Macroglobulin homolog (Xenopus laevis); assay: cryo-EM structure; remark: listed apart in the source

stoichiometry N [1]: 4
stoichiometry N [2]: 4
Substance: A2Moo (ovomacroglobulin), the Xenopus laevis egg Alpha-2-Macroglobulin homolog (from UniProt A0A8J1L4C4 1-1441) (natural protein)
